Reference: patent US20240117038A1 (Ablynx, published 2024)
Changes are numbered by the printed parent chain. Names may count otherwise.

T1: cynomolgus CX3CR1 (cynomolgus monkey (Macaca fascicularis), UniProt P49238 1-355 (human entry))
T1 construct: Overexpressed on CHO K1 cells; also called cyno CX3CR1; cyCX3CR1
T1 chain: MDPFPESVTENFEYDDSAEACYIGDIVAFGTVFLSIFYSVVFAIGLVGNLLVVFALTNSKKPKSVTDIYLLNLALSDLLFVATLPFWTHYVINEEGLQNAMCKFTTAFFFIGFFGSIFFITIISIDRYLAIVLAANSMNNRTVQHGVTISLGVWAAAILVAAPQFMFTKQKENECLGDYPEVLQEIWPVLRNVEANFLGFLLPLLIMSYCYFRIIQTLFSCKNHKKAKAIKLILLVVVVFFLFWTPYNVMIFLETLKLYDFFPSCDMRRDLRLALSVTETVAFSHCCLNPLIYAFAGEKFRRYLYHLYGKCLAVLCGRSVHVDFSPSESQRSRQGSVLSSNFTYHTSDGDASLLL

T2: human CX3CR1 V249I/T280M (human, UniProt P49238 1-355)
T2 construct: Transiently transfected in HEK293T cells (pcDNA3.1); also called huCX3CR1 variant V249I and T280M
T2 chain: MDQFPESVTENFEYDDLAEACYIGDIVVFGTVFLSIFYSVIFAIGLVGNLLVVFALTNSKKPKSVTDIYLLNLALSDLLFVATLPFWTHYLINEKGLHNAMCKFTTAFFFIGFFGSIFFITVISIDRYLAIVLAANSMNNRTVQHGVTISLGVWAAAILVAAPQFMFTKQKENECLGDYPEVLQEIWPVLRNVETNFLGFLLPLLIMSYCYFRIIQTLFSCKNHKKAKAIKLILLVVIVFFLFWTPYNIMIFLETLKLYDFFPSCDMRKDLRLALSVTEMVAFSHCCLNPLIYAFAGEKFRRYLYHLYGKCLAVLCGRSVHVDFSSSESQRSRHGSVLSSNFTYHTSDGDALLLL

B1: A041600035 (VHH)
chain: DVQLVESGGGSVQPGGSLRLSCAASGSIFSSTAMAWYRQAPGKQRDLVAVISTVGITKYADSVKGRFTISRDNAKNTVYLQMNSLRPEDTALYYCTSDARRGWDTRYWGQGTLVTVSSGGGGSGGGSEVQLVESGGGSVQPGGSLRLSCAASGSIFSSTAMAWYRQAPGKQRDLVAVISTVGITKYADSVKGRFTISRDNAKNTVYLQMNSLRPEDTALYYCTSDARRGWDTRYWGQGTLVTVSSGGGGSGGGSEVQLVESGGGVVQPGGSLRLSCAASGFTFRSFGMSWVRQAPGKGPEWVSSISGSGSDTLYADSVKGRFTISRDNSKNTLYLQMNSLRPEDTALYYCTIGGSLSRSSQGTLVTVSSA
notes: Trivalent ISVD construct (two anti-CX3CR1 ISVDs, one anti-albumin ISVD), C-terminal alanine included in the entry; also called 54A12_SO (E1D)-9GS-54A12_SO-9GS-ALB23002-A
B2: A041600041 (VHH)
chain: B1 chain with Q171R, V177A, S179N, I183V, A226P
notes: Trivalent ISVD construct (two anti-CX3CR1 ISVDs, one anti-albumin ISVD), C-terminal alanine included in the entry; also called 54A12_SO (E1D)-9GS-66B02_SO-9GS-ALB23002-A
B3: A041600025 (VHH)
chain: DVQLVESGGGSVQPGGSLRLSCAASGSIFSSTAMAWYRQAPGKQRDLVAVISTVGITKYADSVKGRFTISRDNAKNTVYLQMNSLRPEDTALYYCTSDARRGWDTRYWGQGTLVTVSSGGGGSGGGSEVQLVESGGGVVQPGGSLRLSCAASGFTFRSFGMSWVRQAPGKGPEWVSSISGSGSDTLYADSVKGRFTISRDNSKNTLYLQMNSLRPEDTALYYCTIGGSLSRSSQGTLVTVSSGGGGSGGGSEVQLVESGGGSVQPGGSLRLSCAASGSIFSSTAMAWYRQAPGKQRDLVAVISTVGITKYADSVKGRFTISRDNAKNTVYLQMNSLRPEDTALYYCTSDARRGWDTRYWGQGTLVTVSSA
notes: Trivalent ISVD construct (two anti-CX3CR1 ISVDs, one anti-albumin ISVD), C-terminal alanine included in the entry; also called 54A12_SO (E1D)-9GS-ALB23002-9GS-54A12_SO-A
B4: A041600034 (VHH)
chain: B3 chain with Q295R, V301A, S303N, I307V, A350P
notes: Trivalent ISVD construct; also called 54A12_SO (E1D)-9GS-ALB23002-9GS-66B02_SO-A
B5: A041600085 (VHH)
chain: DVQLVESGGGLVQPGGSLRLSCAASGSIFSSTAMAWYRQAPGKRRDLVAAISTVGVTKYADSVKGRFTISRDNSKNTVYLQMNSLRPEDTAVYYCTSDPRRGWDTRYWGQGTLVTVSSGGGGSGGGSEVQLVESGGGVVQPGGSLRLSCAASGFTFRSFGMSWVRQAPGKGPEWVSSISGSGSDTLYADSVKGRFTISRDNSKNTLYLQMNSLRPEDTALYYCTIGGSLSRSSQGTLVTVSSGGGGSGGGSEVQLVESGGGLVQPGGSLRLSCAASGSIFSSTAMAWYRQAPGKRRDLVAAISTVGVTKYADSVKGRFTISRDNSKNTVYLQMNSLRPEDTAVYYCTSDPRRGWDTRYWGQGTLVTVSSA
notes: also called 307-9GS-ALB23002-9GS-307 (D1E)-A

Tests used:
human CCR5 = target: T3, human CCR5 (human, UniProt P51681 1-352); test: flow cytometry on CHO-K1 cells expressing human CCR5
T3 construct: whole, on cells; also called huCCR5
T3 sequence (P51681 whole entry): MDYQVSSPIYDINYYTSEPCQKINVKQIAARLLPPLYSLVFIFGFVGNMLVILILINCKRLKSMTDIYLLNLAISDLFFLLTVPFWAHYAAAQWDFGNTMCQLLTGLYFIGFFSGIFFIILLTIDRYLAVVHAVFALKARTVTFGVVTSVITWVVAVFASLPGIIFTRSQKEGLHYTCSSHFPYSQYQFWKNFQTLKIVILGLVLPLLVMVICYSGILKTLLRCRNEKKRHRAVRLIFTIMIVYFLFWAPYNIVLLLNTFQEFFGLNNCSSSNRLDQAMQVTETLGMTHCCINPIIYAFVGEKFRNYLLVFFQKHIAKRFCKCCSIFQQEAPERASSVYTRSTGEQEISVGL
Method: CHO cells overexpressing human or cynomolgus CX3CR1 were generated using techniques known in the art. Cells were harvested and resuspended in assay buffer (PBS, 2% FBS, 0.05% NaN3) and seeded separately in 384-well Bio-One V-bottom plates (Greiner, Cat. No. 781280), with a total of 2E04 cells seeded per well. After washing, serial dilutions of multivalent ISVD construct (starting from 250 nM, 3-fold dilution, 11 points, diluted in assay buffer), were added and incubated for 4 hours at 4° C. Binding was performed in the presence of 30 uM HSA (Sigma-Aldrich, Cat. No. A8763). Plates were then washed 3 times and cells were incubated with an anti-VHH mouse antibody (3300-fold diluted in assay buffer) for 30 minutes at 4′° C. […] Plates were finally washed 3 times and cells were resuspended in PI (Miltenyi Biotec, Cat. No. 130-093-233, 1000-fold diluted in assay buffer). Cell suspensions were analyzed with iQue Screener PLUS (Intellicyt). EC50s were estimated by dose response modelling. Curves were fit using 4 parameter logistic regression in GraphPad (GraphPad Software Inc.). A purified anti-human CX3CR1 antibody [K0124E1] (BioLegend, Cat. No. 355701/355702) was used as positive control to detect CX3CR1 expression on the cell surface.
Specificity of the 5 selected multivalent ISVD constructs for the huCX3CR1 receptor was evaluated by performing a FACS binding experiment on CHO-K1 cells expressing human CCR2 or human CCR5. CHO cells overexpressing huCCR2 or huCCR5 were generated using techniques known in the art. Binding of the multivalent ISVD constructs to huCR2 or huCCR5 expressed on the cell surfaces was examined by flow cytometry as described in example 5.1.

cynomolgus CX3CR1 = target: T1, cynomolgus CX3CR1; test: MSD-SET in-solution affinity on cell expressed cyno CX3CR1, 30 uM HSA, geometric mean of N = 3
Method: The affinity was determined on 3 independent assay occasions.

human CX3CR1 V249I/T280M = target: T2, human CX3CR1 V249I/T280M; test: flow cytometry on HEK293T cells transiently transfected with human CX3CR1 V249I + T280M; detection with anti-VHH mouse antibody and goat anti-mouse Fc APC, as in Example 5.1
Method: Plates were then washed 3 times and cells were incubated with an anti-VHH mouse antibody (3300-fold diluted in assay buffer) for 30 minutes at 4′° C. […] Plates were finally washed 3 times and cells were resuspended in PI (Miltenyi Biotec, Cat. No. 130-093-233, 1000-fold diluted in assay buffer). Cell suspensions were analyzed with iQue Screener PLUS (Intellicyt). EC50s were estimated by dose response modelling. Curves were fit using 4 parameter logistic regression in GraphPad (GraphPad Software Inc.). A purified anti-human CX3CR1 antibody [K0124E1] (BioLegend, Cat. No. 355701/355702) was used as positive control to detect CX3CR1 expression on the cell surface.
Two important SNPs are described in huCX3CR1, i.e. V2491 (Rs3732379) and T280M (Rs3732378), which might influence receptor activity and binding by the ISVD. […] Different combinations of these SNPs were introduced in human CX3CR1, and binding by 5 selected multivalent ISVD constructs was assessed with flow cytometry after transient transfection of the huCX3CR1 variants in HEK293T cells.
In short, the CX3CR1 constructs were cloned into pcDNA3.1 (ThermoFisher Scientific, Cat. No. V79020) and plasmid DNA was prepared from Escherichia coli TOP10 cells. […]

Binder | binding result (human CCR5) | Kd (cynomolgus CX3CR1) | binding result (human CX3CR1 V249I/T280M)
B1 | no binding | 0.11 nM | 
B2 | no binding |  | binds
B3 | no binding |  | 
B4 | no binding |  | 
B5 | no binding |  | binds
